Assay results from patent US6846640B2, “Time-resolved fluorescence assay for the detection of multimeric forms of A-beta 1-40” (Pharmacia & Upjohn Company, priority 2002, dated 2005).

Experiments:
β-amyloid 1-40 = target: T1, β-amyloid 1-40 (Homo sapiens, UniProt P05067); test: TRF aggregation assay for β-amyloid polypeptide aggregation; type: biochemical; conditions: 50 ug/ml β-amyloid, 24 uM test compound, 2% DMSO, 37° C. for 24 hrs
T1 construct: Beta-amyloid 1-40 (Aβ) and biotin-labeled β-amyloid 1-40 peptides were purchased from Biosource; purchased Biosource (Camarillo, Calif.)
Protocol: Beta-amyloid 1-40 (Aβ) and biotin-labeled β-amyloid 1-40 peptides were purchased from Biosource (Camarillo, Calif.). β-amyloid and biotinylated amyloid stock solutions, diluted in 0.1% acetic acid and corrected for 80% peptide content, were diluted to 83 μg/ml and 42 μg/ml, respectively, in reaction buffer (Dulbecco's PBS pH 7.4, 0.02% Tween 20). An equal mixture of the two β-amyloid products was then brought to a final concentration of 62.5 μg/ml total β-amyloid, giving a final 2:1 ratio of unbiotinylated to biotinylated Aβ polypeptide. When analyzing aggregation in the presence of test compound, 5 ul of diluted test compound (120 uM in 10% DMSO) was added to each well being analyzed in a 384-well polystyrene plate (Nunc). Test compounds are added over a range of concentrations. Twenty microliters of the β-amyloid reaction mixture was dispensed into each well of the 384 well plate, giving the final assay conditions as 24 uM test compound, 2% DMSO, and 50 ug/ml β-amyloid in a final volume of 25 uL. Plates were then sealed with foil sealers (Corning), and incubated at 37° C. for 24 hrs. […] Plates were washed with reaction buffer and 75 uL of DELFIA Enhancement solution (Wallac) was added to each well and the plates read on TRF capable plate reader (excitation at 337 run and emission at 620 nm).

β amyloid = β amyloid (Homo sapiens, UniProt P05067); test: β-amyloid aggregation ELISA protocol (Howlett et al.); type: biochemical; conditions: Aβ incubated overnight, 6E10 antibody
Protocol: For the β-amyloid aggregation ELISA protocol (Howlett et al., supra), 96 uL diluted β amyloid solution (51 μg/ml) is added to a 96-well polystyrene plate in the presence of and absence of 2 μL of an aggregation inhibitor test compound diluted in DMSO. The Aβ is incubated overnight to allow for aggregation and an aliquot transferred to another 96-well polystyrene plate, precoated with anti-Aβ antibody (6E10, Senetek, Napa, Calif.) overnight, washed, and blocked with Dulbecco's PBS/1% BSA solution. […] The secondary, biotinylated antibody was bound with 200 μL Eu^3+-streptavidin (100 ng/ml) in DELFIA assay buffer, the excess washed off, and the plate developed in DELFIA enhancement solution and read on a TRF plate reader as outlined above.

T1 sequence (P05067 672-711 limits assumed): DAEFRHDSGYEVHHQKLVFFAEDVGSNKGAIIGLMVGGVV
Chain of β amyloid (P05067 672-711 limits assumed): as above

## QKLVFF [QKLVFF peptide]
β-amyloid 1-40
  prevents Aβ aggregation: 44%

## CO[C@H]1/C=C/O[C@@]2(C)Oc3c(C)c(O)c4c(O)c(c(/C=N/N5CCN(C)CC5)c(O)c4c3C2=O)NC(=O)/C(C)=C\C=C\[C@H](C)[C@H](O)[C@@H](C)[C@@H](O)[C@@H](C)[C@H](OC(C)=O)[C@@H]1C [rifampicin]
β amyloid
  inhibition of Aβ aggregation: ~30%
